Test results as given in US20030232052A1 (CALIFORNIA INSTITUTE OF TECHNOLOGY, published 2003).
Where two headings read alike, the source gives them in different places.

Experiments:
[1] = biological target: mutant Htt exon 1 with 103 polyQ repeats fused to EGFP (UniProt P42858); assay: cell-based or functional assay
[2] = biological target: T1, mutant Htt exon 1 with 103 polyQ repeats fused to EGFP (UniProt P42858 1-88; P42212 1-238 = GFP); assay: coimmunoprecipitation from 293 cell lysates with anti-Flag Ab, blot with anti-HD1-17
T1 construct: Expressed in 293 cells; Order of pieces follows 'Htt exon 1-EGFP'; also called PQ103
Description: The scFvs and IκBα in Triton X-100 cell extracts were precipitated with anti-Flag Ab, and the precipitates were subjected to SDS-PAGE.
Briefly, cells were harvested 24 hours after transfection and lysed by sonication in buffer A (25 mM Hepes, pH 7.4/2.5 mM MgCl₂/50 mM NaCl/1 mM EDTA/1% Triton X-100). After clearing the lysates by centrifugation at 14,300 rpm (Eppendorf microcentrifuge) for 10 minutes at 4° C., 200 μg of each lysate was incubated at 4° C. with rocking for 2 hours with a 40-μl slurry of anti-Flag Ab coupled to protein A beads. The beads were then washed five times in buffer A by using centrifugation at 5,000 rpm, and the complexes were resolved on SDS-PAGE. […] Secondary antibodies conjugated to horseradish peroxidase (HRP) were used to detect the reactive protein bands by enhanced chemiluminescence (Santa Cruz Biotechnology).

[3] = biological target: mutant Htt exon 1 with 103 polyQ repeats fused to EGFP (UniProt P42858); assay: cell-based or functional assay; remark: listed apart in the source

Flag-tagged MW2 scFv expressed in 293 cells
SDS-insoluble aggregated Htt, scanned band at the top of the gel (no scFv: 48.8) (arbitrary units) [1]: 54.3 | increase in mutant Htt-induced TUNEL staining (TUNEL+ cells), 293 cells [1]: 67%

B1: Flag-tagged IκBα (other, UniProt P25963 1-317, looked up, not shown: small tags and cut ends)
chain: MFQAAERPQEWAMEGPRDGLKKERLLDDRHDSGLDSMKDEEYEQMVKELQEIRLEPQEVPRGSEPWKQQLTEDGDSFLHLAIIHEEKALTMEVIRQVKGDLAFLNFQNNLQQTPLHLAVITNQPEIAEALLGAGCDPELRDFRGNTPLHLACEQGCLASVGVLTQSCTTPHLHSILKATNYNGHTCLHLASIHGYLGIVELLVSLGADVNAQEPCNGRTALHLAVDLQNPDLVSLLLKCGADVNRVTYQGYSPYQLTWGRPSTRIQQQLGQLTLENLQMLPESEDEESYDTESEFTEFTEDELPYDDCVFGGQRLTL
notes: Order of pieces follows the name Flag-IκBα; also called Flag-IκBα
binding result [2]: no binding

B2: Flag-tagged MW7 scFv expressed in 293 cells (scFv)
scFv: MDYKDDDDKVAQVKLQESGGGLVQPGGSMKLSCAASGFTFSDAWMDWVRQSPEKGLSGVAEIRSKANNHATYYAESVKGRFTISRDDSKSSVYLQMNSLRAEDTGIYYCIYAGFAYWGQGTTVTVSSGGGGSGGGGSGGGGSDIELTQSPSSLAMSVGQKVTMSCKSSQSLLNSSNQKNYLAWYQQKPGQSPKLLVYFASTRESGVPDRFIGSGSGTDFTLTISSVQAEDLADYFCQQHYSTPWTFGGGTKLEIK
SDS-insoluble aggregated Htt, scanned band at the top of the gel (no scFv: 48.8) (arbitrary units) [3]: 0.2
